Results as given in the supplement of paper PMC10567573.

B1: ZNF263 (parent)
chain: HLTRHQRTHTGEKPYKCTLCGENF

Variants of: B1
Assay: protein stability index of a GFP-peptide fusion (GPS, HEK-293T) (PSI 1-6); higher = more stable
Details: c terminus: a fixed tail appended
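Note: lentivirally expressed fusions sorted by FACS into six bins by GFP to DsRed ratio, PSI derived from sequencing read proportions per bin multiplied by bin number.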

Protein stability index: each site, then its substitutions
P14: N 2.92, I 2.9, R 2.9, W 3.26, K 3.31, Q 3.14, V 2.77, E 3.21, H 3.01, M 2.63, T 2.88, S 2.79, D 3.65, A 2.79, G 3.58, Y 3.04, F 2.78, C 2.52, L 3.14
G21: N 3.02, L 2.58, I 2.41, Q 2.85, Y 2.97, T 2.7, W 2.23, V 2.26, E 3.58, H 3.46, S 2.99, P 2.68, R 2.46, D 3.26, F 2.43, A 3.27, M 3.06, C 2.73, K 3.42
E22: T 2.58, M 2.31, Y 2.39, W 2.13, I 2.75, V 2.17, P 2.95, N 2.69, D 3.33, C 2.29, A 2.54, K 2.36, L 2.08, S 2.9, H 3.43, F 1.95, Q 2.38, G 2.31, R 2.29
F24: M 3.58, S 4.49, W 3.08, E 4.08, K 3.12, N 3.7, P 3.14, Y 2.9, D 4.62, T 3.85, H 3.46, C 4.06, Q 2.88, A 4.22, I 3.02, G 3.67, V 3.47, R 3.13, L 3.44
C17: Y 3.05, G 3.52, H 2.89, I 2.21, L 2.68, A 3.24, E 3.96, K 3.71, D 3.73, R 2.98, Q 3.46, T 3.06, F 2.44, V 3.7, M 2.81, S 3.4, P 3.37, N 3.1
K13: R 2.98, F 2.65, Y 2.74, M 2.56, I 2.13, T 3.54, P 2.88, W 2.5, G 2.92, S 3.24, E 3.64, H 2.9, V 2.69, L 2.03, N 3.16, Q 3.6
K16: T 2.9, I 2.97, W 2.78, M 3.17, R 2.87, C 2.83, G 3.19, H 2.91, E 3.82, F 2.7, V 2.3, Q 3.17, Y 2.52, D 3.74, L 2.33, N 2.82, S 3.19, P 3.32, A 3.72
Y15: G 3.29, N 3.29, F 3.31, V 3.22, R 2.93, E 3.69, I 2.85, L 2.81, W 2.46, M 3.18, S 3.48, Q 3.44, K 3.11, A 3.23, C 4.52, T 3, D 4.21, P 3.1, H 3.24
C20: F 2.25, H 2.66, V 3.07, N 3.25, A 2.89, Y 2.77, P 2.53, Q 3.44, E 4.11, L 2.61, T 3.93, D 3.69, R 3.03, I 2.57, W 2.56, S 3.23, K 3.12, G 2.92, M 2.93
